The source of these data is PMC12521514.

Test [1] concerns the target ClpP-N12A (Staphylococcus aureus) (UniProt Q2G036). Description: negative stain EM.
Test [2] concerns the target T1, Staphylococcus aureus ClpP wild type (Staphylococcus aureus), Q2G036.
T1 chain: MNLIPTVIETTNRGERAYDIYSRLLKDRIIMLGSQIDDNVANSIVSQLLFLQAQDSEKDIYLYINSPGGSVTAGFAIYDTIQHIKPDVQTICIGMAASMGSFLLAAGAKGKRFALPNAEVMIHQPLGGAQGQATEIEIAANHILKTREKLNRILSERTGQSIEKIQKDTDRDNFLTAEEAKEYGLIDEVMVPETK
Conditions: remark: other sources report otherwise.

By stoichiometry N is commonly meant the number of molecules, sites or subunits per partner or assembly. In test [1], “ClpP-N12A (from UniProt Q2G036) (enzyme)” came in with a stoichiometry N of 14.

B1: Staphylococcus aureus ClpP wild type, Q2G036 1-195 (enzyme)
chain: MNLIPTVIETTNRGERAYDIYSRLLKDRIIMLGSQIDDNVANSIVSQLLFLQAQDSEKDIYLYINSPGGSVTAGFAIYDTIQHIKPDVQTICIGMAASMGSFLLAAGAKGKRFALPNAEVMIHQPLGGAQGQATEIEIAANHILKTREKLNRILSERTGQSIEKIQKDTDRDNFLTAEEAKEYGLIDEVMVPETK
For the molecule B1, in test [2], the stoichiometry N stood at 14.
